Results as given in paper PMC8497620, “Structure and inhibition of Cryptococcus neoformans sterylglucosidase to develop antifungal agents” (Nature Communications, 2021).
“And” between values parts separate entries of the source, which are not always exact repeats. Identical values can stand only once.

Columns and labels:
[1] = molecular target: T1, C. neoformans Sgl1 (Cryptococcus neoformans var. grubii, UniProt J9W473); assay: Kinetic evaluation of erg-glc and C6-NBD-GlcCer hydrolysis by Sgl1 (Triton X-100 mixed micelles, HPLC); type: biochemical; settings: for Km, Michaelis-Menten best-fit value / Vmax, Michaelis-Menten best-fit value, Turnover: source data Fig 1d; for KM: substrate of Sgl1, Triton X-100 mixed micelles, 37 °C
T1 sequence (J9W473 entry or part of it): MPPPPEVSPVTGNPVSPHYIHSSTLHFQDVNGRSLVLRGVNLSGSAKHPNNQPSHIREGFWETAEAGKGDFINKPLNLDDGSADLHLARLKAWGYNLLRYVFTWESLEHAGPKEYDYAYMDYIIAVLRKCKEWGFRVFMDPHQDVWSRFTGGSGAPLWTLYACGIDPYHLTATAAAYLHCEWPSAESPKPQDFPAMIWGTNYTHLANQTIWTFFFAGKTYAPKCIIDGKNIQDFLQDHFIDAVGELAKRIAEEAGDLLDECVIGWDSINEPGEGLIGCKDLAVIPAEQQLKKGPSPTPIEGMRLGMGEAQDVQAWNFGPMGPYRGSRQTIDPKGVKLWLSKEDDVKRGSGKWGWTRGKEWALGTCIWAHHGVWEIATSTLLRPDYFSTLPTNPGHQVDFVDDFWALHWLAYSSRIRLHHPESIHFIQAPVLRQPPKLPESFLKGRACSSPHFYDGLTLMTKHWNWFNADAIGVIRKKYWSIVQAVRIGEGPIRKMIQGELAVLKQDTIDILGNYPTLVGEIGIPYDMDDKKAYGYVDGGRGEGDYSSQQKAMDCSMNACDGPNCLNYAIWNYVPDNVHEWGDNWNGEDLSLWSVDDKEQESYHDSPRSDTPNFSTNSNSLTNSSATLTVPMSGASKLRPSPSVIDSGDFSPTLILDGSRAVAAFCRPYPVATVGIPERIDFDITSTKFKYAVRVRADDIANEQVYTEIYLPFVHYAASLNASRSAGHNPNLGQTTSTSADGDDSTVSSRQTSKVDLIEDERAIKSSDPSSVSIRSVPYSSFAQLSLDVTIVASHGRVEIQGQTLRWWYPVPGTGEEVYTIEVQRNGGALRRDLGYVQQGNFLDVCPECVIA
Procedure: A 50 μL volume of Cn Sgl1 wild type and 50 μL of mixed micelles of lipid and Triton X-100 in 50 mM Bis-Tris buffer with 150 mM NaCl, 5 mM βME, and 5 mM DTT were mixed and incubated at 37 °C for 10 min (erg-glc, Avanti Polar Lipids) and 1 h (C6-NBD-glcCer, Matreya). For the substrate erg-glc the amount of protein was 5 ng. 150 ng protein was used for reactions with C6-NBD-GlcCer. After the incubation period, each reaction was quenched with a 2:1 chloroform:methanol solution and the organic phase was collected and dried. Then, the lipid content was resuspended in 50 μL methanol and applied to HPLC (Agilent Technologies). Total erg-glc and ergosterol was detected using absorbance at 282 nm on a C-8 column with a flow rate of 0.5 ml/min in methanol/water 90:10 ratio buffered with 1 mM ammonium formate and 0.2% formic acid. A 85:15 ratio of the same eluent was used for C6-NBD-GlcCer and C6-NBD-ceramide monitoring the fluorescence at 470/530 nm excitation/emission. The total area of product was normalized by the total area of its respective substrate.

[2] = molecular target: T1, C. neoformans Sgl1; assay: Sgl1 inhibition with res-glp substrate (HTS, single-compound dose-response); type: biochemical; settings: res-glp as substrate (100 µM), primary screen; read-out: IC50 against Sgl1
Procedure: Resorufin-3β-D-glucopyranoside (res-glp, Sigma-Aldrich) enzyme kinetic assays were performed according to methods described by Urban et al.[16] with modifications. Reaction buffer contained 50 mM citric acid, 176 mM K2HPO4, pH 6, 0.01% Tween-20, and 10 mM sodium taurocholate. The reactions were carried out in black 96-well plates using 20 ng of enzyme with 100 μM res-glp substrate. In all, 10 μL/well of res-glp substrate was added to each well and the reaction was initiated by adding 20 μL enzyme (20 ng). After incubation at 37 °C for 30–40 min, the fluorescence was read at an excitation of 570 (±10) nm and an emission of 610 (±10) nm on a VersaMax™ Microplate Reader from Molecular Devices. A standard curve was prepared with serial dilutions of the free fluorophore, resorufin, in the same volume of assay buffer.
A ChemBridge DIVERSet-CL library (San Diego, CA) containing 50,000 compounds was screened to identify small molecules that inhibit C. neoformans Sgl1. The library was prepared in a 96-well plate format containing a cocktail of 10 compounds per well at 1 mM each in 100% DMSO. The cocktail plates were first diluted to 100 μM each (1:10 dilution in Dulbecco’s phosphate-buffered saline, DPBS) resulting in 10% DMSO. In order to screen the compound cocktails at […] in 1% DMSO in a final reaction volume of 30 μL an aliquot of 3 μL was added to 17 μL of buffer containing 20 ng of enzyme and the reaction was started adding 10 μL of 100 μM res-glp. A negative control without enzyme and positive controls with and without DMSO were prepared. The plates were incubated at 37 °C for 40 min.
The Z′-factor was used for the assessment of the efficiency of the HTS assay for each individual plate. Values greater than 0.5 has been considered as an indicator of an excellent screening assay quality.

[3] = molecular target: T1, C. neoformans Sgl1; assay: H/D exchange mass spectrometry mapping of disordered regions; settings: H/D exchange MS of C. neoformans Sgl1; per peptide (amino acids Start-End, Sequence); Fig S2a
Procedure: HDX-MS reactions were performed in a similar manner as is outlined in previous publications. HDX reactions were conducted in a final reaction volume of 50 µL with a final Sgl1 concentration of 0.6 µM (30 pmol). Exchange was carried out in triplicate for a single time point (3 s at 4 °C). Hydrogen deuterium exchange was initiated by the addition of 48 µL of D2O buffer (100 mM NaCl (20 mM pH 6.0 Bis-Tris), 90.5% D2O (V/V) to 1 µL of protein and 1 µL of H2O. Exchange was terminated by the addition of ice-cold acidic quench buffer, resulting in a final concentration of 0.6 M guanidine-HCl and 0.9% FA post quench. Samples were immediately frozen in liquid nitrogen and stored at −80 °C. Fully deuterated samples were generated by first denaturing the protein in 2 M guanidine for 5 min at 20 °C. Following denaturing, 48 µL of D2O buffer was added to the denatured protein and allowed to incubate for 5 min at 20 °C before quenching. Samples were flash frozen and stored at −80 °C until injection onto the ultra-performance liquid chromatography (UPLC) system for proteolytic cleavage, peptide separation, and injection onto a QTOF for mass analysis.
Protein sample was rapidly thawed and injected onto a UPLC system kept in a cold box at 2 °C. The protein was run over two immobilized pepsin columns (Applied Biosystems; Porosyme 2-3131-00) and the peptides were collected onto a VanGuard Precolumn trap (Waters). The trap was eluted in line with an ACQUITY 1.7 μm particle, 100 × 1 mm^2 C18 UPLC column (Waters), using a gradient of 5–36% B (Buffer A 0.1% formic acid, Buffer B 100% acetonitrile) over 16 min. MS experiments were performed on an Impact QTOF (Bruker) and peptide identification was done by running tandem MS (MS/MS) experiments run in data-dependent acquisition mode. The resulting MS/MS dataset was analyzed using PEAKS7 (PEAKS) and a false discovery rate was set at 1% using a database of purified proteins and known contaminants. HDExaminer Software (Sierra Analytics) was used to automatically calculate the level of deuterium incorporation into each peptide. All peptides were manually inspected for correct charge state and presence of overlapping peptides. Deuteration levels were calculated using the centroid of the experimental isotope clusters, with correction for back exchange generated using the fully deuterated sample. The mass spectrometry proteomics data have been deposited to the ProteomeXchange Consortium via the PRIDE partner repository[31] with the dataset identifier PXD024981.

Row | Compound | % Deuterium incorporation, Average [3] [%] | other results
1 | CCCCCCCCCCCCCC=CC(O)C(COC1OC(CO)C(O)C(O)C1O)NC(=O)CCCCCNc1ccc([N+](=O)[O-])c2nonc12 (stereo not drawn) [C6-NBD-GlcCer, C6-NBD-glucosylceramide] | – | Turnover (mol C6-NBD-Ceramide / sec/ mol enzyme) ([1]; 0.3 mol% C6-NBD-GlcCer): 0.0009 mol C6-NBD-Ceramide / sec/ mol enzyme and 0.0010 mol C6-NBD-Ceramide / sec/ mol enzyme; Turnover (mol C6-NBD-Ceramide / sec/ mol enzyme) ([1]; 0.7 mol% C6-NBD-GlcCer): 0.0024 mol C6-NBD-Ceramide / sec/ mol enzyme and 0.0025 mol C6-NBD-Ceramide / sec/ mol enzyme; Turnover (mol C6-NBD-Ceramide / sec/ mol enzyme) ([1]; 1.0 mol% C6-NBD-GlcCer): 0.0039 mol C6-NBD-Ceramide / sec/ mol enzyme and 0.0038 mol C6-NBD-Ceramide / sec/ mol enzyme; Turnover (mol C6-NBD-Ceramide / sec/ mol enzyme) ([1]; 1.5 mol% C6-NBD-GlcCer): 0.0051 mol C6-NBD-Ceramide / sec/ mol enzyme; Turnover (mol C6-NBD-Ceramide / sec/ mol enzyme) ([1]; 2.0 mol% C6-NBD-GlcCer): 0.0066 mol C6-NBD-Ceramide / sec/ mol enzyme and 0.0051 mol C6-NBD-Ceramide / sec/ mol enzyme; Turnover (mol C6-NBD-Ceramide / sec/ mol enzyme) ([1]; 2.5 mol% C6-NBD-GlcCer): 0.0073 mol C6-NBD-Ceramide / sec/ mol enzyme and 0.0067 mol C6-NBD-Ceramide / sec/ mol enzyme; Turnover (mol C6-NBD-Ceramide / sec/ mol enzyme) ([1]; 3.0 mol% C6-NBD-GlcCer): 0.0085 mol C6-NBD-Ceramide / sec/ mol enzyme and 0.0080 mol C6-NBD-Ceramide / sec/ mol enzyme; Turnover (mol C6-NBD-Ceramide / sec/ mol enzyme) ([1]; 3.5 mol% C6-NBD-GlcCer): 0.0076 mol C6-NBD-Ceramide / sec/ mol enzyme and 0.0074 mol C6-NBD-Ceramide / sec/ mol enzyme; Turnover (mol C6-NBD-Ceramide / sec/ mol enzyme) ([1]; 4.0 mol% C6-NBD-GlcCer): 0.0074 mol C6-NBD-Ceramide / sec/ mol enzyme and 0.0082 mol C6-NBD-Ceramide / sec/ mol enzyme; Turnover (mol C6-NBD-Ceramide / sec/ mol enzyme) ([1]; 4.5 mol% C6-NBD-GlcCer): 0.0064 mol C6-NBD-Ceramide / sec/ mol enzyme and 0.0070 mol C6-NBD-Ceramide / sec/ mol enzyme; Turnover (mol C6-NBD-Ceramide / sec/ mol enzyme) ([1]; 5.0 mol% C6-NBD-GlcCer): 0.0075 mol C6-NBD-Ceramide / sec/ mol enzyme and 0.0072 mol C6-NBD-Ceramide / sec/ mol enzyme; Km, Michaelis-Menten best-fit value [1]: 1.734 mol%; Vmax, Michaelis-Menten best-fit value, Turnover [1]: 0.01082 s⁻¹; KM [1]: 1.73 ± 0.37 mol%
2 | Cc1cc(NCc2ccc3[nH]c(C)c(C)c3c2)nc(N)n1 [Hit 4] | – | IC50 [2]: 4 µM
3 | CC(C)[C@@H](C)/C=C/[C@@H](C)[C@H]1CC[C@H]2C3=CC=C4C[C@@H](O[C@@H]5O[C@H](CO)[C@@H](O)[C@H](O)[C@H]5O)CC[C@]4(C)[C@H]3CC[C@]12C [erg-glc, ergosterol 3β-D-glucoside] | – | Turnover (mol ergosterol / sec/ mol enzyme) ([1]; 0.07 mol% Erg-glc): 0.1064 mol ergosterol / sec/ mol enzyme and 0.1082 mol ergosterol / sec/ mol enzyme; Turnover (mol ergosterol / sec/ mol enzyme) ([1]; 0.10 mol% Erg-glc): 0.1849 mol ergosterol / sec/ mol enzyme and 0.1742 mol ergosterol / sec/ mol enzyme; Turnover (mol ergosterol / sec/ mol enzyme) ([1]; 0.20 mol% Erg-glc): 0.3045 mol ergosterol / sec/ mol enzyme and 0.2862 mol ergosterol / sec/ mol enzyme; Turnover (mol ergosterol / sec/ mol enzyme) ([1]; 0.50 mol% Erg-glc): 0.4688 mol ergosterol / sec/ mol enzyme and 0.4091 mol ergosterol / sec/ mol enzyme; Turnover (mol ergosterol / sec/ mol enzyme) ([1]; 0.90 mol% Erg-glc): 0.6080 mol ergosterol / sec/ mol enzyme and 0.5033 mol ergosterol / sec/ mol enzyme; Turnover (mol ergosterol / sec/ mol enzyme) ([1]; 1.20 mol% Erg-glc): 0.5944 mol ergosterol / sec/ mol enzyme and 0.5189 mol ergosterol / sec/ mol enzyme; Turnover (mol ergosterol / sec/ mol enzyme) ([1]; 2.00 mol% Erg-glc): 0.6438 mol ergosterol / sec/ mol enzyme and 0.6016 mol ergosterol / sec/ mol enzyme; Km, Michaelis-Menten best-fit value [1]: 0.3118 mol%; Vmax, Michaelis-Menten best-fit value, Turnover [1]: 0.721 s⁻¹; KM [1]: 0.31 ± 0.04 mol%
4 | CC(C)Oc1cccc(C(=O)C2CCCN(C3CCSCC3)C2)c1 (stereo not drawn) [Hit 3] | – | IC50 [2]: 4 µM
5 | CN(C)CCN(Cc1ccsc1)Cc1ccc2nonc2c1 [Hit 11] | – | IC50 [2]: 4 µM
6 | O=C(c1ccc(-c2ccccc2)c(F)c1)C1CCCN(C2CCSCC2)C1 (stereo not drawn) [Hit 2] | – | IC50 [2]: 4 µM
7 | CCC(Sc1nc2ccccc2o1)C(=O)N1CCc2[nH]cnc2C1 (stereo not drawn) [Hit 8] | – | IC50 [2]: 4 µM
8 | PVLRQPPKLPESFL | 40.7 | –
9 | NASRSAGHNPNLGQTTSTSADGDDSTVSSRQTSKVDLIE | 100.2 | –
10 | WESLEHAGPKEYDYA | 8.8 | –
11 | COc1cc(CNCc2cc(C)cc3c(C)c(C)[nH]c23)cc2c1OCO2 [Hit 12] | – | IC50 [2]: 2 µM
12 | INKPLNLDDGSADLHL | 21.9 | –
13 | IEDERAIKSSDPSS | 101.2 | –
14 | VGEIGIPYDMDDKKAYGYVDGGRGEGDY | 21.5 | –
15 | IDSGDFSPTLIL | 26.0 | –
16 | DVTIVASHGRVEIQGQT | 25.2 | –
17 | FSTLPTNPGHQVDF | 50.7 | –
18 | VRIGEGPIRKMIQGEL | 21.0 | –
19 | IGWDSINEPGEGLIGCKDL | 4.5 | –
20 | YTHLANQTIWTFF | 3.1 | –
21 | WSVDDKEQES | 70.6 | –
22 | HDSPRSDTPNF | 91.2 | –

Row | Compound | % Deuterium incorporation, Average [3] [%] | other results
23 | AASLNASRSAGHNPNLGQTTSTSADGDD | 99.7 | –
24 | PVTGNPVSPHYIHSSTL | 36.8 | –
25 | ILDGSRAVAA | 26.4 | –
26 | WALGTCIWAHHGVWE | 1.7 | –
27 | IYLPFVHYAASL | 21.4 | –
28 | NADAIGVIRKKYWSIVQ | 33.7 | –
29 | WLSKEDDVKRGSGKWGWTRGKEWALGTCI | 17.4 | –
30 | LRKCKEWGF | -8.6 | –
31 | KQDTIDILGNYPTL | 22.4 | –
32 | IIDGKNIQD | 14.1 | –
33 | VIRKKYWSIVQA | 46.8 | –
34 | LVLRGVN | 5.8 | –
35 | SRFTGGSGAPLWTL | 5.6 | –
36 | EIATSTL | 59.2 | –
37 | VNLSGSAKHPNNQPSHIREGF | 45.8 | –
38 | SSRIRLHHPESIHF | 4.1 | –
39 | IEDERAIKSSDPSSVS | 106.2 | –
40 | NACDGPNCLNY | 17.8 | –
41 | VQAWNFGPMGPYRGSRQTIDPKGVKL | 24.9 | –
42 | NASRSAGHNPNLGQTTSTSADGDD | 102.3 | –
43 | DVTIVASHGRVEIQGQTLRWWYPVPGTGEEVY | 16.6 | –
44 | NASRSAGHNPNLGQTTSTSADGDDST | 100.5 | –
